Experimental data: patent publication US6638503

Experiments:
Bovine serum albumin = Bovine serum albumin (UniProt P02769)
[1] = tested on: bovine serum albumin, haemoglobin, fibrinogen and thrombin
Human fibrinogen = Human fibrinogen (UniProt P02671)
Chain of Human fibrinogen (P02671 20-629, chain 1 of 3): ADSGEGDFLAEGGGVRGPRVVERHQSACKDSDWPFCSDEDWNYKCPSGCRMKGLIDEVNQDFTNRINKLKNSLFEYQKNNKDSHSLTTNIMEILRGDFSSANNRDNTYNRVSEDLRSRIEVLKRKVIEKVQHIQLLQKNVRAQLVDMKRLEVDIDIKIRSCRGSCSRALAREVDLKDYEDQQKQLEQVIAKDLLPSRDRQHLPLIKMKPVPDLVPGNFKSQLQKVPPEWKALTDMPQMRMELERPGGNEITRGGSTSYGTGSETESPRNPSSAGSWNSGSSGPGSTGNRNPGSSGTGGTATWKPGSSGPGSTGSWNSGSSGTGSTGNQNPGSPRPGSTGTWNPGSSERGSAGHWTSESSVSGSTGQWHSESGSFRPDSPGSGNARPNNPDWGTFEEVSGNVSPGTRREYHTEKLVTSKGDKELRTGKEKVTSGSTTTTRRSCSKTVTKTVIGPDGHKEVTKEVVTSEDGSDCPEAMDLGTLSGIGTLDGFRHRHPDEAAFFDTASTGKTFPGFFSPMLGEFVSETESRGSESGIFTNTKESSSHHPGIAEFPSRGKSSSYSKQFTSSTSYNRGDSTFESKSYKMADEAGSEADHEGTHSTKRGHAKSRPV
Chain of Human fibrinogen (chain, as listed by the source, chain 2 of 3): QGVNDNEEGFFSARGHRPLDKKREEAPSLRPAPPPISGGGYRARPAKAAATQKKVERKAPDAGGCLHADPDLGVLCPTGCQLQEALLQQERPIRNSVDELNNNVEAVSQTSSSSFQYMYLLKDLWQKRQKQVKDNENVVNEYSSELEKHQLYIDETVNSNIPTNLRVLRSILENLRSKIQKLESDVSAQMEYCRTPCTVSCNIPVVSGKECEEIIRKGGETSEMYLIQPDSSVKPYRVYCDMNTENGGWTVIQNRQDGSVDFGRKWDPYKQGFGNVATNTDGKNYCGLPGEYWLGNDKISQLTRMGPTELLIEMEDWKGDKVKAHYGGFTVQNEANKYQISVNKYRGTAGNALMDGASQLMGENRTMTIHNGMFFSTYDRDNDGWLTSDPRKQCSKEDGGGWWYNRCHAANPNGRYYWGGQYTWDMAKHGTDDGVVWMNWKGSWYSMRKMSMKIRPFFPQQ
Chain of Human fibrinogen (chain, as listed by the source, chain 3 of 3): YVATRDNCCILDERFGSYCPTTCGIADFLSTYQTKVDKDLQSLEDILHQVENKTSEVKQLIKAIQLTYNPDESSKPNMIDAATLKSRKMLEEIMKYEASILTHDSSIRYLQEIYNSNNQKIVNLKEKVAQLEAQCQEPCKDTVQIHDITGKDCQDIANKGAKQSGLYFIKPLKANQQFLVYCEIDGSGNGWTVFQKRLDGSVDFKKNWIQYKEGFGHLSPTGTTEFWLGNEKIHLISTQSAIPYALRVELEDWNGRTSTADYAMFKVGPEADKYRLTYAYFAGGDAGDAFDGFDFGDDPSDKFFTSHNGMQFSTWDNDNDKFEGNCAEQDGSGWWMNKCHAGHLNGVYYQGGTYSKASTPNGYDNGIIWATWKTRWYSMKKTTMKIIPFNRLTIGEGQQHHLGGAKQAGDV

Chain of plasminogen (chain, as listed by the source): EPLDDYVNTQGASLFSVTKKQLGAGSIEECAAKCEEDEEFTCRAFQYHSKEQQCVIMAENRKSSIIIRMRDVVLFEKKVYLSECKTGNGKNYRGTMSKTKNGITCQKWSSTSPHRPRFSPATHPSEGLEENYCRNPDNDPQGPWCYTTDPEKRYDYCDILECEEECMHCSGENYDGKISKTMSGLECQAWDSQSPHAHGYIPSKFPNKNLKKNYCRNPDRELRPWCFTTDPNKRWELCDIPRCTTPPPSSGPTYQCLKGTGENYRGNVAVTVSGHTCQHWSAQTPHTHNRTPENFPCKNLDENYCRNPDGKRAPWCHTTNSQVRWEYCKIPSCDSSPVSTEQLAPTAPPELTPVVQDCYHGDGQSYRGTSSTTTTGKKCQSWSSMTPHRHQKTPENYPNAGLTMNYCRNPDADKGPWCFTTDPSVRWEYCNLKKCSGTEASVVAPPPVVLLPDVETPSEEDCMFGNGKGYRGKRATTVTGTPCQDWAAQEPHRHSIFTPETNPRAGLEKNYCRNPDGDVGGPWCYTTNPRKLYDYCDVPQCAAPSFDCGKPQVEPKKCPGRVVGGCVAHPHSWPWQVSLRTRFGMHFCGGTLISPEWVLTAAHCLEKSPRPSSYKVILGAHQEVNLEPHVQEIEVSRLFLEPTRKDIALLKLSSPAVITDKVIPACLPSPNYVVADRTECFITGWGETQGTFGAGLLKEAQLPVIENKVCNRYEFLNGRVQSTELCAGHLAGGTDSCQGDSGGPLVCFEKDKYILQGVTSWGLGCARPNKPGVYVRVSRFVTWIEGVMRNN
Chain of Bovine serum albumin (P02769 25-607): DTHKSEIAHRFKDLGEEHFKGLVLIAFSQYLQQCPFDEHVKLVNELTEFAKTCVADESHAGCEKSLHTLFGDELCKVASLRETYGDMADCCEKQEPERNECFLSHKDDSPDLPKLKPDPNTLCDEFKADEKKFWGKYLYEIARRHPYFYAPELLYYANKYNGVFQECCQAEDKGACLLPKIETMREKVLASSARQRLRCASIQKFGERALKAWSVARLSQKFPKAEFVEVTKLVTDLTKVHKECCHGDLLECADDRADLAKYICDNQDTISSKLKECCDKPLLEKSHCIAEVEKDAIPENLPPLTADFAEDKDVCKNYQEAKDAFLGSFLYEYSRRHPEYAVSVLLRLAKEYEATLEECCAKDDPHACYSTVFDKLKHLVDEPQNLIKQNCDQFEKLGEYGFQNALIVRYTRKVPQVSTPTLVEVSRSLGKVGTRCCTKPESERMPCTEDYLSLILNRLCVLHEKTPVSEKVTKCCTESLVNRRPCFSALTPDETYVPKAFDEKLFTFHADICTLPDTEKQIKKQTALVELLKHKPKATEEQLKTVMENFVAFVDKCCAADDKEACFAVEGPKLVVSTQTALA

actinokinase (fibrinolytic enzyme from Streptomyces megasporus SD5)
Relative activity (%) (Bovine serum albumin): 32%
Relative activity (%) (Fibrin): 100%
fibrinolytic activity (Fibrin): 1.0×10^3 µmole/ tyrosine mg^-1 protein min^-1
Relative activity (%) (Hemoglobin): 8%
proteolytic activity, % of the control [1]: varied from 5-30% of the control
Relative activity (%) (Human fibrinogen): 12%
caseinolytic activity (casein): 1.0×10^2 µmole/tyrosine mg^-1 protein min^-1
amidolytic activity with and without added plasminogen (plasminogen): Amydolytic activity exhibited by the enzyme was same in presence and absence of plasminogen
Relative activity (%) (Thrombin): 27%
